Five molecules from patent US20240209096A1 (INVETX, published 2024) can be followed below.

In test [1] the target is T1, canine FcRn (soluble large subunit p51 isoform X2 with 6xHis-tag, co-expressed with canine … (canine)).
T1 construct: Heterodimer made by co-expression in CHO cells, purified on HISTRAP FF, >95% pure by SEC; Both entries hold a 19-residue signal peptide at the N-terminus that should be removed (residues 1-19); also called FcRn complex
T1 chain: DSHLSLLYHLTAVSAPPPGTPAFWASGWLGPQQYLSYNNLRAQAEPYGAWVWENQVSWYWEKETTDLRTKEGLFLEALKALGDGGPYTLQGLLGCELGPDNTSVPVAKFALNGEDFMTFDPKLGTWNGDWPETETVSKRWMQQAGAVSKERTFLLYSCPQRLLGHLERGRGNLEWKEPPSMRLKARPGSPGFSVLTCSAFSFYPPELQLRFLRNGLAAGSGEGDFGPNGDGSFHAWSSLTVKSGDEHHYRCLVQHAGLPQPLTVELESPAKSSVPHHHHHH
T1 b2m: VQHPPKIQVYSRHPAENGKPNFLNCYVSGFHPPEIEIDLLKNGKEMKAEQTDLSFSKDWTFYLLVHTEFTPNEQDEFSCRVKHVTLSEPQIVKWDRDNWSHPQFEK
As to the kind of experiment: SPR, IgG on protein L chip, FcRn in flow, pH 5.9, 1:1 fit; pH 5.9, 1:1 kinetic fit. Here is the method: (§1) The canine FcRn binding experiments at pH 5.9 and pH 7.4 were completed on a BIACORE™ T200 instrument. A Series S Protein L Sensor chip (Cytiva, Cat. No. BR29205137) was used to capture the antibody variants via the kappa (κ) light chain. The canine variants were captured onto the protein L chip at a flow rate of 10 μL/min for 60 seconds. Approximately 250 RUs of the variants were captured. For the low pH binding condition, 1×PBX-P+ (Cytiva, Cat. No. 28995084) was adjusted to pH 5.9. The canine FcRn was flowed over the sensor chip at 30 μL/min for 120 seconds contact time and 600 seconds dissociation time. Regeneration of the flow cells was completed by flowing over 10 mM glycine, pH 1.7 at 30 μL/min for 30 seconds. The data were evaluated by the BIACORE™ T200 Evaluation software (version 3.2.1) by fitting to a 1:1 kinetic interaction model.
A general note: In SPR one partner is held on a chip, and binding of the other changes the refractive index at the surface.

The target in test [2] is T1, canine FcRn (soluble large subunit p51 …). Put plainly: SPR, IgG on protein L chip, FcRn in flow, pH 5.9, kinetic data. Here is the method:
as §1

Test [3] shares this target. Put plainly: SPR, IgG on protein L chip, FcRn in flow, pH 7.4, steady state fit. As to the method:
as §1
A subset of the Fc variants was tested for binding to canine FcRn at pH 7.4. For these experiments, 1×PBX-P+ (Cytiva, Cat. No. 28995084) was adjusted to pH 7.4. […] In addition, the pH 7.4 data were evaluated by the BIACORE™ T200 Evaluation software (version 3.2.1) by fitting to steady state affinity model. The kinetic binding data for the variants at pH 7.4 along with the binding data at pH 5.9 for these variants are shown in Table 7 below.

The target is the same in test [4]. Put plainly: SPR, IgG on protein L chip, FcRn in flow, pH 5.9, 1:1 fit. As to the method: as §1

B1: IgG with wild-type canine IgGB Fc (antibody)
heavy: EVQLVESGGDLVAPSQSLSITCTVSGMSLTSNSISWVRQPPGRGLEWLGTIWSNGGTDYTDAVKGRFTISRDNAKNTVYLQMNSLRAEDTAMYYCAQIYYYDADYLHWYFDFWGQGTLVTVSSASTTAPSVFPLAPSCGSTSGSTVALACLVSGYFPEPVTVSWNSGSLTSGVHTFPSVLQSSGLYSLSSMVTVPSSRWPSETFTCNVAHPASKTKVDKPVPKRENGRVPRPPDCPKCPAPEAAGGPSVFIFPPKPKDTLLIARTPEVTCVVVDLDPEDPEVQISWFVDGKQMQTAKTQPREEQFNGTYRVVSVLPIGHQDWLKGKQFTCKVNNKALPSPIERTISKARGQAHQPSVYVLPPSREELSKNTVSLTCLIKDFFPPDIDVEWQSNGQQEPESKYRTTPPQLDEDGSYFLYSKLSVDKSRWQRGDTFICAVMHEALHNHYTQESLSHSPG
light: EIVMTQSPASLSASQEEKVTITCRASEGISNNLAWYQQKPGQAPKLLIHATSSLQTGVPSRFSGSGSGTDFTLTISSLQPEDFATYYCQQGYQFPLTFGQGTKVEIKRNDAQPAVYLFQPSPDQLHTGSASVVCLLNSFYPKDINVKWKVDGVIQDTGIQESVTEQDKDSTYSLSSTLTMSSTEYLSHELYSCEITHKSLPSTLIKSFQRSECQRVD
notes: Full chains; canine IgGB constant domain with MALA mutations; variable domains of WO 2023/97275; also called Wild-type Fc
Consider B1, for which, in test [1], the equilibrium dissociation constant (Kd) (in general, the concentration at which binding is half-saturated) was determined as 231 nM; the koff (in general, the first-order rate constant of dissociation) amounted to 0.0927 s⁻¹; the kon (usually a measure of how fast the partners come together) came out at 285000 M⁻¹ s⁻¹.

B2: IgG with canine IgGB Fc variant N434H, T286L (antibody)
heavy: EVQLVESGGDLVAPSQSLSITCTVSGMSLTSNSISWVRQPPGRGLEWLGTIWSNGGTDYTDAVKGRFTISRDNAKNTVYLQMNSLRAEDTAMYYCAQIYYYDADYLHWYFDFWGQGTLVTVSSASTTAPSVFPLAPSCGSTSGSTVALACLVSGYFPEPVTVSWNSGSLTSGVHTFPSVLQSSGLYSLSSMVTVPSSRWPSETFTCNVAHPASKTKVDKPVPKRENGRVPRPPDCPKCPAPEAAGGPSVFIFPPKPKDTLLIARTPEVTCVVVDLDPEDPEVQISWFVDGKQMQLAKTQPREEQFNGTYRVVSVLPIGHQDWLKGKQFTCKVNNKALPSPIERTISKARGQAHQPSVYVLPPSREELSKNTVSLTCLIKDFFPPDIDVEWQSNGQQEPESKYRTTPPQLDEDGSYFLYSKLSVDKSRWQRGDTFICAVMHEALHHHYTQESLSHSPG
light: EIVMTQSPASLSASQEEKVTITCRASEGISNNLAWYQQKPGQAPKLLIHATSSLQTGVPSRFSGSGSGTDFTLTISSLQPEDFATYYCQQGYQFPLTFGQGTKVEIKRNDAQPAVYLFQPSPDQLHTGSASVVCLLNSFYPKDINVKWKVDGVIQDTGIQESVTEQDKDSTYSLSSTLTMSSTEYLSHELYSCEITHKSLPSTLIKSFQRSECQRVD
notes: Full chains; canine IgGB constant domain with MALA mutations; variable domains of WO 2023/97275
As for B2, in test [2], binding was characterised by a dissociation constant (Kd) of 21.3 nM, the koff was 0.0518 s⁻¹ and the kon was 2.44e+06 M⁻¹ s⁻¹. Besides, the equilibrium dissociation constant (Kd) in test [3] worked out at 3450 nM. In test [4], this molecule registered a Kd of 21.3 nM, a koff of 0.0518 s⁻¹ and an association rate constant (kon) of 2.44e+06 M⁻¹ s⁻¹.

B3: IgG with canine IgGB Fc variant N434H, T286W (antibody)
heavy: EVQLVESGGDLVAPSQSLSITCTVSGMSLTSNSISWVRQPPGRGLEWLGTIWSNGGTDYTDAVKGRFTISRDNAKNTVYLQMNSLRAEDTAMYYCAQIYYYDADYLHWYFDFWGQGTLVTVSSASTTAPSVFPLAPSCGSTSGSTVALACLVSGYFPEPVTVSWNSGSLTSGVHTFPSVLQSSGLYSLSSMVTVPSSRWPSETFTCNVAHPASKTKVDKPVPKRENGRVPRPPDCPKCPAPEAAGGPSVFIFPPKPKDTLLIARTPEVTCVVVDLDPEDPEVQISWFVDGKQMQWAKTQPREEQFNGTYRVVSVLPIGHQDWLKGKQFTCKVNNKALPSPIERTISKARGQAHQPSVYVLPPSREELSKNTVSLTCLIKDFFPPDIDVEWQSNGQQEPESKYRTTPPQLDEDGSYFLYSKLSVDKSRWQRGDTFICAVMHEALHHHYTQESLSHSPG
light: EIVMTQSPASLSASQEEKVTITCRASEGISNNLAWYQQKPGQAPKLLIHATSSLQTGVPSRFSGSGSGTDFTLTISSLQPEDFATYYCQQGYQFPLTFGQGTKVEIKRNDAQPAVYLFQPSPDQLHTGSASVVCLLNSFYPKDINVKWKVDGVIQDTGIQESVTEQDKDSTYSLSSTLTMSSTEYLSHELYSCEITHKSLPSTLIKSFQRSECQRVD
notes: as for B2
In test [2], B3 gave a Kd of 11.5 nM, a koff of 0.0321 s⁻¹ and a kon of 2.78e+06 M⁻¹ s⁻¹. Besides, binding in test [3] was put at a Kd of 2070 nM. Moreover, in test [4], the Kd amounted to 11.5 nM, the koff was 0.0321 s⁻¹ and the kon was determined as 2.78e+06 M⁻¹ s⁻¹.

B4: IgG with canine IgGB Fc variant N434H, T286F (antibody)
heavy: EVQLVESGGDLVAPSQSLSITCTVSGMSLTSNSISWVRQPPGRGLEWLGTIWSNGGTDYTDAVKGRFTISRDNAKNTVYLQMNSLRAEDTAMYYCAQIYYYDADYLHWYFDFWGQGTLVTVSSASTTAPSVFPLAPSCGSTSGSTVALACLVSGYFPEPVTVSWNSGSLTSGVHTFPSVLQSSGLYSLSSMVTVPSSRWPSETFTCNVAHPASKTKVDKPVPKRENGRVPRPPDCPKCPAPEAAGGPSVFIFPPKPKDTLLIARTPEVTCVVVDLDPEDPEVQISWFVDGKQMQFAKTQPREEQFNGTYRVVSVLPIGHQDWLKGKQFTCKVNNKALPSPIERTISKARGQAHQPSVYVLPPSREELSKNTVSLTCLIKDFFPPDIDVEWQSNGQQEPESKYRTTPPQLDEDGSYFLYSKLSVDKSRWQRGDTFICAVMHEALHHHYTQESLSHSPG
light: EIVMTQSPASLSASQEEKVTITCRASEGISNNLAWYQQKPGQAPKLLIHATSSLQTGVPSRFSGSGSGTDFTLTISSLQPEDFATYYCQQGYQFPLTFGQGTKVEIKRNDAQPAVYLFQPSPDQLHTGSASVVCLLNSFYPKDINVKWKVDGVIQDTGIQESVTEQDKDSTYSLSSTLTMSSTEYLSHELYSCEITHKSLPSTLIKSFQRSECQRVD
notes: as for B2
In test [2], B4 returned a Kd of 14.4 nM, a koff of 0.0361 s⁻¹ and a kon of 2.52e+06 M⁻¹ s⁻¹. Besides, the affinity in test [3], expressed as Kd, was 2370 nM. Besides, in test [4], the Kd was determined as 14.4 nM, the koff is 0.0361 s⁻¹ and the kon came to 2.52e+06 M⁻¹ s⁻¹.

B5: IgG with canine IgGB Fc variant N434H, T286Y (antibody)
heavy: EVQLVESGGDLVAPSQSLSITCTVSGMSLTSNSISWVRQPPGRGLEWLGTIWSNGGTDYTDAVKGRFTISRDNAKNTVYLQMNSLRAEDTAMYYCAQIYYYDADYLHWYFDFWGQGTLVTVSSASTTAPSVFPLAPSCGSTSGSTVALACLVSGYFPEPVTVSWNSGSLTSGVHTFPSVLQSSGLYSLSSMVTVPSSRWPSETFTCNVAHPASKTKVDKPVPKRENGRVPRPPDCPKCPAPEAAGGPSVFIFPPKPKDTLLIARTPEVTCVVVDLDPEDPEVQISWFVDGKQMQYAKTQPREEQFNGTYRVVSVLPIGHQDWLKGKQFTCKVNNKALPSPIERTISKARGQAHQPSVYVLPPSREELSKNTVSLTCLIKDFFPPDIDVEWQSNGQQEPESKYRTTPPQLDEDGSYFLYSKLSVDKSRWQRGDTFICAVMHEALHHHYTQESLSHSPG
light: EIVMTQSPASLSASQEEKVTITCRASEGISNNLAWYQQKPGQAPKLLIHATSSLQTGVPSRFSGSGSGTDFTLTISSLQPEDFATYYCQQGYQFPLTFGQGTKVEIKRNDAQPAVYLFQPSPDQLHTGSASVVCLLNSFYPKDINVKWKVDGVIQDTGIQESVTEQDKDSTYSLSSTLTMSSTEYLSHELYSCEITHKSLPSTLIKSFQRSECQRVD
notes: as for B2
In test [2], B5 displayed an equilibrium dissociation constant (Kd) of 15.7 nM, a koff of 0.0318 s⁻¹ and a kon of 2.04e+06 M⁻¹ s⁻¹. Also, the Kd in test [3] was 2170 nM. In test [4], this molecule gave a Kd of 15.7 nM, a koff of 0.0318 s⁻¹ and a kon of 2.04e+06 M⁻¹ s⁻¹.
